Measurements taken from the Human Domainome abundance scans (Beltran et al. 2025).
± gives the uncertainty stated by the source.

B1: Gamma-crystallin S, residues 96 to 176; numbered along this chain, P22914 (parent)
chain: IQIFEKGDFSGQMYETTEDCPSIMEQFHMREIHSCKVLEGVWIFYELPNYRGRQYLLDKKEYRKPIDWGAASPAVQSFRRI

Variants of: B1
Assay: abundance fitness (aPCA) (normalised: wild type 0, dead -1); higher = more abundant; growth selection in yeast, the domain comes from the species named
Conditions: Homo sapiens

For IQIFEKGDFSGQMTETTEDCPSIMEQFHMREIHSCKVLEGVWIFYELPNYRGRQYLLDKKEYRKPIDWGAASPAVQSFRRI, which abundance fitness is on record?
Its abundance fitness is 0.086 ± 0.078.

With IQIFEKGDFSGQMGETTEDCPSIMEQFHMREIHSCKVLEGVWIFYELPNYRGRQYLLDKKEYRKPIDWGAASPAVQSFRRI as the variant, how does the abundance fitness read?
Its abundance fitness is 0.028 ± 0.056.

Which abundance fitness does the source give for IQIFEKGDFSGQMIETTEDCPSIMEQFHMREIHSCKVLEGVWIFYELPNYRGRQYLLDKKEYRKPIDWGAASPAVQSFRRI here?
Its abundance fitness is -0.003 ± 0.08.

For IQIFEKGDFSGQPYETTEDCPSIMEQFHMREIHSCKVLEGVWIFYELPNYRGRQYLLDKKEYRKPIDWGAASPAVQSFRRI, which abundance fitness is on record?
Its abundance fitness is 0.027 ± 0.059.

Which abundance fitness does the source give for IQIFEKGDFSGQVYETTEDCPSIMEQFHMREIHSCKVLEGVWIFYELPNYRGRQYLLDKKEYRKPIDWGAASPAVQSFRRI here?
The abundance fitness was -0.017 ± 0.047.

Which abundance fitness does the source give for IQIFEKGDFSGQEYETTEDCPSIMEQFHMREIHSCKVLEGVWIFYELPNYRGRQYLLDKKEYRKPIDWGAASPAVQSFRRI here?
The abundance fitness was 0.028 ± 0.061.

For IQIFEKGDFSGQNYETTEDCPSIMEQFHMREIHSCKVLEGVWIFYELPNYRGRQYLLDKKEYRKPIDWGAASPAVQSFRRI, which abundance fitness is on record?
Its abundance fitness is -0.083 ± 0.11.

With IQIFEKGDFSGQAYETTEDCPSIMEQFHMREIHSCKVLEGVWIFYELPNYRGRQYLLDKKEYRKPIDWGAASPAVQSFRRI as the variant, how does the abundance fitness read?
Its abundance fitness is -0.011 ± 0.051.

Which abundance fitness does the source give for IQIFEKGDFSGQIYETTEDCPSIMEQFHMREIHSCKVLEGVWIFYELPNYRGRQYLLDKKEYRKPIDWGAASPAVQSFRRI here?
Its abundance fitness is 0.062 ± 0.098.

With IQIFEKGDFSGQCYETTEDCPSIMEQFHMREIHSCKVLEGVWIFYELPNYRGRQYLLDKKEYRKPIDWGAASPAVQSFRRI as the variant, how does the abundance fitness read?
The abundance fitness was -0.012 ± 0.076.

Which abundance fitness does the source give for IQIFEKGDFSGQQYETTEDCPSIMEQFHMREIHSCKVLEGVWIFYELPNYRGRQYLLDKKEYRKPIDWGAASPAVQSFRRI here?
Its abundance fitness is 0.019 ± 0.061.

Which abundance fitness does the source give for IQIFEKGDFSGQTYETTEDCPSIMEQFHMREIHSCKVLEGVWIFYELPNYRGRQYLLDKKEYRKPIDWGAASPAVQSFRRI here?
The abundance fitness was 0.027 ± 0.064.

With IQIFEKGDFSGQHYETTEDCPSIMEQFHMREIHSCKVLEGVWIFYELPNYRGRQYLLDKKEYRKPIDWGAASPAVQSFRRI as the variant, how does the abundance fitness read?
Its abundance fitness is 0.005 ± 0.099.

For IQIFEKGDFSGQDYETTEDCPSIMEQFHMREIHSCKVLEGVWIFYELPNYRGRQYLLDKKEYRKPIDWGAASPAVQSFRRI, which abundance fitness is on record?
The abundance fitness was -0.032 ± 0.16.

With IQIFEKGDFSGQSYETTEDCPSIMEQFHMREIHSCKVLEGVWIFYELPNYRGRQYLLDKKEYRKPIDWGAASPAVQSFRRI as the variant, how does the abundance fitness read?
Its abundance fitness is -0.023 ± 0.052.

For IQIFEKGDFSGQYYETTEDCPSIMEQFHMREIHSCKVLEGVWIFYELPNYRGRQYLLDKKEYRKPIDWGAASPAVQSFRRI, which abundance fitness is on record?
The abundance fitness was 0.094 ± 0.15.

With IQIFEKGDFSGQWYETTEDCPSIMEQFHMREIHSCKVLEGVWIFYELPNYRGRQYLLDKKEYRKPIDWGAASPAVQSFRRI as the variant, how does the abundance fitness read?
The abundance fitness was -0.048 ± 0.05.

With IQIFEKGDFSGQFYETTEDCPSIMEQFHMREIHSCKVLEGVWIFYELPNYRGRQYLLDKKEYRKPIDWGAASPAVQSFRRI as the variant, how does the abundance fitness read?
The abundance fitness was -0.04 ± 0.14.

Which abundance fitness does the source give for IQIFEKGDFSGQGYETTEDCPSIMEQFHMREIHSCKVLEGVWIFYELPNYRGRQYLLDKKEYRKPIDWGAASPAVQSFRRI here?
Its abundance fitness is -0.041 ± 0.04.

For IQIFEKGDFSGQKYETTEDCPSIMEQFHMREIHSCKVLEGVWIFYELPNYRGRQYLLDKKEYRKPIDWGAASPAVQSFRRI, which abundance fitness is on record?
The abundance fitness was -0.032 ± 0.064.

With IQIFEKGDFSGQRYETTEDCPSIMEQFHMREIHSCKVLEGVWIFYELPNYRGRQYLLDKKEYRKPIDWGAASPAVQSFRRI as the variant, how does the abundance fitness read?
The abundance fitness was -0.01 ± 0.028.

Which abundance fitness does the source give for IQIFEKGDFSGQMYENTEDCPSIMEQFHMREIHSCKVLEGVWIFYELPNYRGRQYLLDKKEYRKPIDWGAASPAVQSFRRI here?
Its abundance fitness is 0.024 ± 0.13.

With IQIFEKGDFSGQMYELTEDCPSIMEQFHMREIHSCKVLEGVWIFYELPNYRGRQYLLDKKEYRKPIDWGAASPAVQSFRRI as the variant, how does the abundance fitness read?
Its abundance fitness is 0.049 ± 0.056.

For IQIFEKGDFSGQMYEDTEDCPSIMEQFHMREIHSCKVLEGVWIFYELPNYRGRQYLLDKKEYRKPIDWGAASPAVQSFRRI, which abundance fitness is on record?
Its abundance fitness is -0.002 ± 0.13.

For IQIFEKGDFSGQMYEGTEDCPSIMEQFHMREIHSCKVLEGVWIFYELPNYRGRQYLLDKKEYRKPIDWGAASPAVQSFRRI, which abundance fitness is on record?
Its abundance fitness is 0.006 ± 0.054.

For IQIFEKGDFSGQMYEFTEDCPSIMEQFHMREIHSCKVLEGVWIFYELPNYRGRQYLLDKKEYRKPIDWGAASPAVQSFRRI, which abundance fitness is on record?
Its abundance fitness is 0.148 ± 0.15.

With IQIFEKGDFSGQMYEATEDCPSIMEQFHMREIHSCKVLEGVWIFYELPNYRGRQYLLDKKEYRKPIDWGAASPAVQSFRRI as the variant, how does the abundance fitness read?
The abundance fitness was 0.026 ± 0.061.

With IQIFEKGDFSGQMYEITEDCPSIMEQFHMREIHSCKVLEGVWIFYELPNYRGRQYLLDKKEYRKPIDWGAASPAVQSFRRI as the variant, how does the abundance fitness read?
The abundance fitness was -0.055 ± 0.092.

For IQIFEKGDFSGQMYEMTEDCPSIMEQFHMREIHSCKVLEGVWIFYELPNYRGRQYLLDKKEYRKPIDWGAASPAVQSFRRI, which abundance fitness is on record?
The abundance fitness was 0.061 ± 0.13.

Which abundance fitness does the source give for IQIFEKGDFSGQMYEHTEDCPSIMEQFHMREIHSCKVLEGVWIFYELPNYRGRQYLLDKKEYRKPIDWGAASPAVQSFRRI here?
The abundance fitness was -0.003 ± 0.16.

With IQIFEKGDFSGQMYEPTEDCPSIMEQFHMREIHSCKVLEGVWIFYELPNYRGRQYLLDKKEYRKPIDWGAASPAVQSFRRI as the variant, how does the abundance fitness read?
The abundance fitness was 0.102 ± 0.071.

Which abundance fitness does the source give for IQIFEKGDFSGQMYEETEDCPSIMEQFHMREIHSCKVLEGVWIFYELPNYRGRQYLLDKKEYRKPIDWGAASPAVQSFRRI here?
Its abundance fitness is 0.046 ± 0.054.

For IQIFEKGDFSGQMYECTEDCPSIMEQFHMREIHSCKVLEGVWIFYELPNYRGRQYLLDKKEYRKPIDWGAASPAVQSFRRI, which abundance fitness is on record?
The abundance fitness was 0.012 ± 0.093.

Which abundance fitness does the source give for IQIFEKGDFSGQMYEKTEDCPSIMEQFHMREIHSCKVLEGVWIFYELPNYRGRQYLLDKKEYRKPIDWGAASPAVQSFRRI here?
Its abundance fitness is -0.129 ± 0.15.
